These results are taken from patent publication US20170226155A1.

In assay [1] the target is Dipeptidyl amino peptidase type IV (DPP IV). Description: cell-based or functional assay.
Assay [2] deals with -. Nature of the assay: enzyme inhibition (fluorescence); pH 7.6, +DPIV.
The target in assay [3] is -. Description: enzyme inhibition (fluorescence); pH 2, -DPIV.
Assay [4] has as its target -. Nature of the assay: enzyme inhibition (fluorescence); pH 2, +DPIV.
In assay [5] the target is -. Description: enzyme inhibition (fluorescence); pH 7.6, -DPIV.
For assay [6], the target named is -. Nature of the assay: enzyme inhibition (A410); pH 2.
For assay [7], the target named is -. Nature of the assay: enzyme inhibition (A410); pH 12.
The target of assay [8] is -. Description: enzyme inhibition (A410); pH 8.
The target in assay [9] is DP IV. Nature of the assay: enzyme inhibition (A410); pH 8, 30 minutes.
The target in assay [10] is DP IV. Nature of the assay: enzyme inhibition (A410); pH 2, 10 minutes.
Assay [11] has as its target DP IV. Nature of the assay: enzyme inhibition (A410); pH 2, 30 minutes.
The target of assay [12] is DPP IV. Nature of the assay: enzyme inhibition (A410); pH 8, 30 minutes.
The target in assay [13] is DPP IV. Nature of the assay: enzyme inhibition (A410); pH 2, 10 minutes.
Assay [14] has as its target DPP IV. Description: enzyme inhibition (A410); pH 2, 30 minutes.
Assay [15] has as its target DPP IV. Description: enzyme inhibition (A410); pH 8, 10 minutes.

Take ChgAlaEtgboroPro (peptide): in assay [1], the IC50 – broadly, the midpoint of a concentration-inhibition curve – at ten minutes, pH 2 was 600 nM and the 50% inhibitory concentration (IC50) at ten minutes, pH 8 is 802 nM.

For the substance ChgAlaProboroPro (peptide), in assay [1], the IC50, pH 2 (Tetrapeptide Prodrugs) was determined as 2 mM; the IC50, pH 8 (Tetrapeptide Prodrugs) came to 30 mM; the IC50 at ten minutes, pH 2 was found to be 2 µM; the IC50 at ten minutes, pH 8 stood at 30 µM.

On to AspProGlyboroLeu, for which the IC50 worked out at 93 nM with - [2], 232 nM with - [3], 108 nM with - [4] and 234 nM in the assay with - [5].

As to ChgDhpEtgboroPro (peptide), in assay [1], the IC50 at ten minutes, pH 2 is 15 nM and the IC50 at ten minutes, pH 8 amounted to 17 nM.

For ChgProChgboroAla (peptide), in assay [1], the IC50, pH 2 (Tetrapeptide Prodrugs) was found to be 180 nM; the IC50, pH 8 (Tetrapeptide Prodrugs) stood at 170 nM; the IC50 at ten minutes, pH 2 worked out at 180 nM; the IC50 at ten minutes, pH 8 is 170 nM.

Turning to Propyl Gly-boro-Pro, the values for the IC50 in the assay with - [6], in the assay with - [7] and with - [8] were 2.5 nM, 200 nM and 2800 nM, respectively.

ChgAlaValboroPro (peptide): in assay [1], the IC50, pH 2 (Tetrapeptide Prodrugs) amounted to 190 nM; the IC50, pH 8 (Tetrapeptide Prodrugs) is 360 nM; the concentration for half-maximal inhibition (IC50) at ten minutes, pH 2 is 190 nM; the IC50 at ten minutes, pH 8 stood at 360 nM.

In assay [1], ChgPipEtgboroPro (peptide) gave an IC50 at ten minutes, pH 2 of 19 nM and an IC50 at ten minutes, pH 8 of 14 nM.

Consider “Cyclohexylglycine-Proline-Valine-boroProline (peptide)”, for which, in assay [1], the IC50, pH 2 (Tetrapeptide Prodrugs) was found to be 65 nM; the IC50, pH 8 (Tetrapeptide Prodrugs) worked out at 72 nM; the IC50 at ten minutes, pH 2 was determined as 70 nM; the IC50 at ten minutes, pH 8 came out at 70 nM.

In assay [1], ChgAlaEtgboroAla (peptide) gave an IC50 at ten minutes, pH 2 of 1.3 µM and a half-inhibitory concentration (IC50) at ten minutes, pH 8 of 2.5 µM.

In [1], ChgProtBugboroPro (peptide) yielded an IC50 at ten minutes, pH 2 of 1.5 µM and an IC50 at ten minutes, pH 8 of 8 µM.

In assay [1], ChgProChgboroPro (peptide) showed an IC50 at ten minutes, pH 2 of 14 nM and an IC50 at ten minutes, pH 8 of 14 nM.

In assay [1], ChgThz4EtgboroPro (peptide) yielded an IC50 at ten minutes, pH 2 of 13 nM and a 50% inhibitory concentration (IC50) at ten minutes, pH 8 of 16 nM.

ChgAib-EthylGly-boroPro: the results for the IC50 with DP IV [9], with DP IV [10] and in the assay with DP IV [11] were 3.2 µM, 13 µM and 2100 nM, respectively.

In assay [1], ChgProEtgboroPro (peptide) had an IC50 at ten minutes, pH 2 of 12 nM and an IC50 at ten minutes, pH 8 of 14 nM.

Turning to ChgAzeEtgboroPro (peptide), in [1], the IC50 at ten minutes, pH 2 came out at 15 nM and the IC50 at ten minutes, pH 8 stood at 16 nM.

Regarding ChgAla-tBugboroPro, the IC50 with DPP IV [12], with DPP IV [13], with DPP IV [14] and in the assay with DPP IV [15] was > 22 µM throughout.

As for tert-Butyl Gly-boro-Pro, the IC50 came to 3.4 nM in the assay with - [6], 19 nM with - [7] and 300 nM with - [8].

For the substance ChgProtBugboroAla (peptide), in [1], the IC50 at ten minutes, pH 2 turned out to be 6.8 µM and the IC50 at ten minutes, pH 8 turned out to be 8.4 µM.

Regarding “Cyclohexylglycine-Proline-Ala-boroProline (peptide)”, in assay [1], the IC50, pH 2 (Tetrapeptide Prodrugs) came out at 19 nM; the IC50, pH 8 (Tetrapeptide Prodrugs) was determined as 15 nM; the half-inhibitory concentration (IC50) at ten minutes, pH 2 stood at 17 nM; the IC50 at ten minutes, pH 8 stood at 17 nM.

On to “N-Me-Gly-3,4 dehydroproline-ALA-PRO boronic acid (peptide)”, for which, in [1], the IC50 at ten minutes, pH 2 came to 39 nM and the concentration for half-maximal inhibition (IC50) at ten minutes, pH 8 was 34 nM.

ChgHypEtgboroPro (peptide): in assay [1], the half-inhibitory concentration (IC50) at ten minutes, pH 2 was 17 nM and the IC50 at ten minutes, pH 8 is 25 nM.

AibAlaValboroPro (peptide): the concentration for half-maximal inhibition (IC50) at ten minutes, pH 2 in assay [1] worked out at 2 µM.

In assay [1], tBugProAlaboroPro (peptide) yielded an IC50 at ten minutes, pH 2 of 14 nM and an IC50 at ten minutes, pH 8 of 18 nM.
